Results published in publication PMC9537018.

B1: Staphylococcal nuclease domain-containing protein 1 (SND1): tunicamycin (protein)
parent chain: MASSAQSGGSSGGPAVPTVQRGIIKMVLSGCAIIVRGQPRGGPPPERQINLSNIRAGNLARRAAATQPDAKDTPDEPWAFPAREFLRKKLIGKEVCFTIENKTPQGREYGMIYLGKDTNGENIAESLVAEGLATRREGMRANNPEQNRLSECEEQAKAAKKGMWSEGNGSHTIRDLKYTIENPRHFVDSHHQKPVNAIIEHVRDGSVVRALLLPDYYLVTVMLSGIKCPTFRREADGSETPEPFAAEAKFFTESRLLQRDVQIILESCHNQNILGTILHPNGNITELLLKEGFARCVDWSIAVYTRGAEKLRAAERFAKERRLRIWRDYVAPTANLDQKDKQFVAKVMQVLNADAIVVKLNSGDYKTIHLSSIRPPRLEGENTQDKNKKLRPLYDIPYMFEAREFLRKKLIGKKVNVTVDYIRPASPATETVPAFSERTCATVTIGGINIAEALVSKGLATVIRYRQDDDQRSSHYDELLAAEARAIKNGKGLHSKKEVPIHRVADISGDTQKAKQFLPFLQRAGRSEAVVEYVFSGSRLKLYLPKETCLITFLLAGIECPRGARNLPGLVQEGEPFSEEATLFTKELVLQREVEVEVESMDKAGNFIGWLHIDGANLSVLLVEHALSKVHFTAERSSYYKSLLSAEEAAKQKKEKVWAHYEEQPVEEVMPVLEEKERSASYKPVFVTEITDDLHFYVQDVETGTQLEKLMENMRNDIASHPPVEGSYAPRRGEFCIAKFVDGEWYRARVEKVESPAKIHVFYIDYGNREVLPSTRLGTLSPAFSTRVLPAQATEYAFAFIQVPQDDDARTDAVDSVVRDIQNTQCLLNVEHLSAGCPHVTLQFADSKGDVGLGLVKEGLVMVEVRKEKQFQKVITEYLNAQESAKSARLNLWRYGDFRADDADEFGYSR
B2: Staphylococcal nuclease domain-containing protein 1 (SND1): N168Q (protein)
parent chain: MASSAQSGGSSGGPAVPTVQRGIIKMVLSGCAIIVRGQPRGGPPPERQINLSNIRAGNLARRAAATQPDAKDTPDEPWAFPAREFLRKKLIGKEVCFTIENKTPQGREYGMIYLGKDTNGENIAESLVAEGLATRREGMRANNPEQNRLSECEEQAKAAKKGMWSEGNGSHTIRDLKYTIENPRHFVDSHHQKPVNAIIEHVRDGSVVRALLLPDYYLVTVMLSGIKCPTFRREADGSETPEPFAAEAKFFTESRLLQRDVQIILESCHNQNILGTILHPNGNITELLLKEGFARCVDWSIAVYTRGAEKLRAAERFAKERRLRIWRDYVAPTANLDQKDKQFVAKVMQVLNADAIVVKLNSGDYKTIHLSSIRPPRLEGENTQDKNKKLRPLYDIPYMFEAREFLRKKLIGKKVNVTVDYIRPASPATETVPAFSERTCATVTIGGINIAEALVSKGLATVIRYRQDDDQRSSHYDELLAAEARAIKNGKGLHSKKEVPIHRVADISGDTQKAKQFLPFLQRAGRSEAVVEYVFSGSRLKLYLPKETCLITFLLAGIECPRGARNLPGLVQEGEPFSEEATLFTKELVLQREVEVEVESMDKAGNFIGWLHIDGANLSVLLVEHALSKVHFTAERSSYYKSLLSAEEAAKQKKEKVWAHYEEQPVEEVMPVLEEKERSASYKPVFVTEITDDLHFYVQDVETGTQLEKLMENMRNDIASHPPVEGSYAPRRGEFCIAKFVDGEWYRARVEKVESPAKIHVFYIDYGNREVLPSTRLGTLSPAFSTRVLPAQATEYAFAFIQVPQDDDARTDAVDSVVRDIQNTQCLLNVEHLSAGCPHVTLQFADSKGDVGLGLVKEGLVMVEVRKEKQFQKVITEYLNAQESAKSARLNLWRYGDFRADDADEFGYSR
B3: Staphylococcal nuclease domain-containing protein 1 (SND1): N283Q (protein)
parent chain: MASSAQSGGSSGGPAVPTVQRGIIKMVLSGCAIIVRGQPRGGPPPERQINLSNIRAGNLARRAAATQPDAKDTPDEPWAFPAREFLRKKLIGKEVCFTIENKTPQGREYGMIYLGKDTNGENIAESLVAEGLATRREGMRANNPEQNRLSECEEQAKAAKKGMWSEGNGSHTIRDLKYTIENPRHFVDSHHQKPVNAIIEHVRDGSVVRALLLPDYYLVTVMLSGIKCPTFRREADGSETPEPFAAEAKFFTESRLLQRDVQIILESCHNQNILGTILHPNGNITELLLKEGFARCVDWSIAVYTRGAEKLRAAERFAKERRLRIWRDYVAPTANLDQKDKQFVAKVMQVLNADAIVVKLNSGDYKTIHLSSIRPPRLEGENTQDKNKKLRPLYDIPYMFEAREFLRKKLIGKKVNVTVDYIRPASPATETVPAFSERTCATVTIGGINIAEALVSKGLATVIRYRQDDDQRSSHYDELLAAEARAIKNGKGLHSKKEVPIHRVADISGDTQKAKQFLPFLQRAGRSEAVVEYVFSGSRLKLYLPKETCLITFLLAGIECPRGARNLPGLVQEGEPFSEEATLFTKELVLQREVEVEVESMDKAGNFIGWLHIDGANLSVLLVEHALSKVHFTAERSSYYKSLLSAEEAAKQKKEKVWAHYEEQPVEEVMPVLEEKERSASYKPVFVTEITDDLHFYVQDVETGTQLEKLMENMRNDIASHPPVEGSYAPRRGEFCIAKFVDGEWYRARVEKVESPAKIHVFYIDYGNREVLPSTRLGTLSPAFSTRVLPAQATEYAFAFIQVPQDDDARTDAVDSVVRDIQNTQCLLNVEHLSAGCPHVTLQFADSKGDVGLGLVKEGLVMVEVRKEKQFQKVITEYLNAQESAKSARLNLWRYGDFRADDADEFGYSR
B4: Staphylococcal nuclease domain-containing protein 1 (SND1): N416Q (protein)
parent chain: MASSAQSGGSSGGPAVPTVQRGIIKMVLSGCAIIVRGQPRGGPPPERQINLSNIRAGNLARRAAATQPDAKDTPDEPWAFPAREFLRKKLIGKEVCFTIENKTPQGREYGMIYLGKDTNGENIAESLVAEGLATRREGMRANNPEQNRLSECEEQAKAAKKGMWSEGNGSHTIRDLKYTIENPRHFVDSHHQKPVNAIIEHVRDGSVVRALLLPDYYLVTVMLSGIKCPTFRREADGSETPEPFAAEAKFFTESRLLQRDVQIILESCHNQNILGTILHPNGNITELLLKEGFARCVDWSIAVYTRGAEKLRAAERFAKERRLRIWRDYVAPTANLDQKDKQFVAKVMQVLNADAIVVKLNSGDYKTIHLSSIRPPRLEGENTQDKNKKLRPLYDIPYMFEAREFLRKKLIGKKVNVTVDYIRPASPATETVPAFSERTCATVTIGGINIAEALVSKGLATVIRYRQDDDQRSSHYDELLAAEARAIKNGKGLHSKKEVPIHRVADISGDTQKAKQFLPFLQRAGRSEAVVEYVFSGSRLKLYLPKETCLITFLLAGIECPRGARNLPGLVQEGEPFSEEATLFTKELVLQREVEVEVESMDKAGNFIGWLHIDGANLSVLLVEHALSKVHFTAERSSYYKSLLSAEEAAKQKKEKVWAHYEEQPVEEVMPVLEEKERSASYKPVFVTEITDDLHFYVQDVETGTQLEKLMENMRNDIASHPPVEGSYAPRRGEFCIAKFVDGEWYRARVEKVESPAKIHVFYIDYGNREVLPSTRLGTLSPAFSTRVLPAQATEYAFAFIQVPQDDDARTDAVDSVVRDIQNTQCLLNVEHLSAGCPHVTLQFADSKGDVGLGLVKEGLVMVEVRKEKQFQKVITEYLNAQESAKSARLNLWRYGDFRADDADEFGYSR
B5: Staphylococcal nuclease domain-containing protein 1 (SND1): N50Q (protein)
parent chain: MASSAQSGGSSGGPAVPTVQRGIIKMVLSGCAIIVRGQPRGGPPPERQINLSNIRAGNLARRAAATQPDAKDTPDEPWAFPAREFLRKKLIGKEVCFTIENKTPQGREYGMIYLGKDTNGENIAESLVAEGLATRREGMRANNPEQNRLSECEEQAKAAKKGMWSEGNGSHTIRDLKYTIENPRHFVDSHHQKPVNAIIEHVRDGSVVRALLLPDYYLVTVMLSGIKCPTFRREADGSETPEPFAAEAKFFTESRLLQRDVQIILESCHNQNILGTILHPNGNITELLLKEGFARCVDWSIAVYTRGAEKLRAAERFAKERRLRIWRDYVAPTANLDQKDKQFVAKVMQVLNADAIVVKLNSGDYKTIHLSSIRPPRLEGENTQDKNKKLRPLYDIPYMFEAREFLRKKLIGKKVNVTVDYIRPASPATETVPAFSERTCATVTIGGINIAEALVSKGLATVIRYRQDDDQRSSHYDELLAAEARAIKNGKGLHSKKEVPIHRVADISGDTQKAKQFLPFLQRAGRSEAVVEYVFSGSRLKLYLPKETCLITFLLAGIECPRGARNLPGLVQEGEPFSEEATLFTKELVLQREVEVEVESMDKAGNFIGWLHIDGANLSVLLVEHALSKVHFTAERSSYYKSLLSAEEAAKQKKEKVWAHYEEQPVEEVMPVLEEKERSASYKPVFVTEITDDLHFYVQDVETGTQLEKLMENMRNDIASHPPVEGSYAPRRGEFCIAKFVDGEWYRARVEKVESPAKIHVFYIDYGNREVLPSTRLGTLSPAFSTRVLPAQATEYAFAFIQVPQDDDARTDAVDSVVRDIQNTQCLLNVEHLSAGCPHVTLQFADSKGDVGLGLVKEGLVMVEVRKEKQFQKVITEYLNAQESAKSARLNLWRYGDFRADDADEFGYSR

Legend:
[1] = immunoblot of protein level, rescue by MG132 or CQ; conditions: glycan lost; control: untreated WT-SND1-EGFP
[2] = confocal colocalisation with ER marker CNX; conditions: glycan lost; control: WT-SND1-EGFP
[3] = confocal colocalisation with Golgi marker GM130; conditions: glycan lost; control: WT-SND1-EGFP

Row | Protein | degradation_or_half_life [1] | localisation_or_trafficking [2] | localisation_or_trafficking [3]
1 | B1 | decreases | – | –
2 | B2 | – | no change | no change
3 | B3 | – | no change | no change
4 | B4 | – | no change | no change
5 | B5 | decreases | increases | decreases
